Among the data in US20190241668A1 (ARGENX, published 2019) are EC50 and koff values, retold here.

Test [1] addresses T1, TIM-3 (T cell immunoglobulin and mucin-domain containing-3) (human, UniProt Q8TDQ0 22-200, limits assumed).
T1 construct: also called TIMD-3; HAVCR2
T1 sequence (looked up): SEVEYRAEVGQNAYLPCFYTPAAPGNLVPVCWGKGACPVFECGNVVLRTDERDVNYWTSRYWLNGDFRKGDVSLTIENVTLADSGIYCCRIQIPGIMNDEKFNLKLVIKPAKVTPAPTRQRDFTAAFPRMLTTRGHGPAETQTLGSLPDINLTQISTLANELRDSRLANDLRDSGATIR
Nature of the test: ELISA, Fab on TIM-3.

In test [2] the target is T1, TIM-3 (T cell immunoglobulin and …). As to the kind of experiment: Biacore, Fab on TIM-3.

B1: Fab clone 1A11 (Fab, V domains shown)
VH: EVQLVESGGGLVQPGGSLRLSCAASGFTFSSYAMSWVRQAPGKGPEWVSHINSGGGNTKYADSVKGRFTISRDNAKNTLYLQMNTLKPEDTAVYYCAKDVSGGYYGTYALDAWGQGTQVVVSS
VL: SYELTQSPSVSVALKQTAKITCGGDNIGSKSAQWYQQKPGQAPVLVIYADSRRPSGIPERFSGSNSGNTATLTISGAQAEDEADYYCQVWDSSAAVFGGGTHLTVL
notes: Llama-derived Fab from an immune library; the constant domains of the Fab are not
In turn, B1 came in with an EC50 in test [1] of 0.01 µg/mL. For the same molecule, the off-rate (koff) in test [2] stood at 2.48e-05 s⁻¹.

B2: Fab clone 2D6 (Fab, V domains shown)
VH: QVQLQESGGGLVQPGGSLTLSCAASGFFFSSYAMSWVRQAPGKGLEWVSSISAGGGTSYYADSVKGRFTISRDSAKNTLVLQMNSLKPEDTAVYYCAKKRQNFWSEGYDSWGQGTQVTVSS
VL: HSAVTQPPSVSGSPGKAVTISCVGSSSDVGYGDYVSWYQQLPGMAPKLLIYDVEKRASGIPDRFSGSKSGNTASLTISGLQSEDEADYYCASYRSDSNFVFGGGTHLAVL
notes: as for B1
Turning to B2, in test [1], the EC50 is 0.00717 µg/mL. In addition, in test [2], the koff worked out at 0.000166 s⁻¹.

B3: Fab clone 2A9 (Fab, V domains shown)
VH: QVQLVESGPGLVKPSQTLSLTCTVSGGSITTSDDAWSWIRQPAGKGLEWMGVIAYDGSTRYSPSLQSRTSISRDTSKNQFSLQLSSVTPEDTAVYYCARTKGVGGTWALDAWGQGTLVTVSS
VL: EIVLTQSPSSVTASVGEKVTINCKSSQSVLSSSNQKNYLSWYQQRLGQSPRLLITWASTRESGVPDRFSGSGSTTDFTLTISSFQPEDAAVYYCQQGYGAPLTFGQGTKVELKR
notes: as for B1
On to B3, for which the midpoint of the response in test [1], the EC50, lay at 0.0114 µg/mL.

B4: Fab clone 2C6 (Fab, V domains shown)
VH: QVQLVESGGGLVQPGGSLRLSCAASGFAFSSYDMSWVRQAPGKGPEWVSTINSGGGSTSYADSVKGRFTISRDNAKNTVYLQMNSLKPEDTAVYYCAARSLYYTRVPMYDYWGQGTQVTVSK
VL: QAVVTQEPSLSVSPGGTVTLTCGLSSGSVTTNNYPGWFQQTPGQAPRTLIYSTSSRHSGVPSRFSGSISGNKAALTITGAQPEDEADYYCALDIGSYTAVFGGGTHLTVL
notes: as for B1
In test [1], B4 displayed a concentration giving a half-maximal response (EC50) of 0.00821 µg/mL. For the same molecule, the koff in test [2] was determined as 1.04e-05 s⁻¹.

B5: Fab clone 2B6 (Fab, V domains shown)
VH: QVQLVESGGGLVQPGGSLRLSCAASGFAFSSYDMSWVRQAPGKGLEWVSTINSGGGSTNYADSMKGRFTISRDNAKNTVYLQMNSLKPEDTAVYYCAARSPYYTRVPLYDYWGQGTQVTVSS
VL: QAVVTQEPSLSVSLGGTVTLTCGLRSGSVTTSNYPGWFKQTPGQAPRTLIFGASSRHSGVPSRYSGSISGNKAALTITGAEPEDEADYYCALNKGTYTDVFGGGTKLTVL
notes: as for B1
Regarding B5, the EC50 in test [1] is 0.00852 µg/mL. This molecule gave a koff in test [2] of 3.64e-05 s⁻¹.

B6: Fab clone 2E2 (Fab, V domains shown)
VH: QLQLVESGGGLVQPGGSLRLSCAASGFTFGSYDMSWVRQAPGKGPEWVSRITSGGGSTYADSVKGRFTISRDNAKNTLSLQMNSLKSEDTAVYYCAAGQYSDGYYPYDYWGQGTQVTVSS
VL: DIVMTQSPSSLSASLGDRVTITCQASQSISSYLAWYQQKPGQGPKLLIYGASRLEPGVPSRFSGSGSGTSFTLTISGVEAEDLATYYCLQDYSWPYSFGSGTRLEIK
notes: as for B1
Take B6: the EC50 in test [1] was 0.121 µg/mL.

B7: Fab clone 2E9 (Fab, V domains shown)
VH: EVQLVESGGGLVQPGGSLRLSCAASGFTFDDYTMSWVRQVPGKGLEWISGISGNGGRTDYVEPIEGRFTISRDNAKNTLYLQMNSLKSEDTAVYYCAKTSPQSLDYWGQGTQVTVSS
VL: DIVMTQSPSSVTASVGEKVTINCKSSQSVVSGSNQKSYLNWYQQRPGQPPRLLIYYASTQESGIPDRFSGSGSTTDFTLTISSVQPEDAAVYYCQQAYSAPYNFGSGTRLEIK
notes: as for B1
Consider B7, for which the EC50 in test [1] came to 0.0149 µg/mL. In test [2], this molecule displayed a koff of 6.64e-05 s⁻¹.

B8: Fab clone 2B10 (Fab, V domains shown)
VH: QVQLQESGPGLVKPSQTLSLTCTVSGGSITTNRYLWTWIRQTPGKGLEWVGAIAYSGRTYYSPSLKSRTSISRDTSKNQFTLQLSSVTPEDTGVYYCAHFTGWGGYYWGQGTQVTVSS
VL: QSALTQPPSVSGTLGKTVTISCAGTSSDIGGYNSVSWYQQLPGTAPKLLIYEVNKRASGIPDRFSGSKSGNTASLSISGLQSEDEADYYCASYRSANNVVFGGGTKLTVL
notes: Llama-derived Fab from an immune library; the constant domains of the Fab are not; also called 2610; 21310
B8: the EC50 in test [1] stood at 0.014 µg/mL. This molecule also displayed a koff in test [2] of 1.85e-05 s⁻¹.

B9: Fab clone 2A6 (Fab, V domains shown)
VH: QVQLVESGGGLVQPGGSLRLSCAASGFTFSNYWMYWVRQAPGKGLEWVSTINTNGAITLYADNVKDRFTVSRDNAKNTLYLQMNSLKSEDTAVYYCAKVKLSGYPHPYYAMDYWGKGTLVTVSS
VL: NFMLTQPPSLSGSLGQSARLTCTLGSGNSIGAHTISWYQQKAGSPPRYLLNYYSDSSNHQASGVPSRFSGSKDDSTNAGLLLISGLQPEDEADYYCAAGDGSGTVFGGGTKLTVL
notes: as for B1
With B9, a half-maximal response in test [1] (EC50) required 0.0104 µg/mL. The koff in test [2] was 0.000151 s⁻¹.

B10: Fab clone 2B9 (Fab, V domains shown)
VH: EVQLQESGPGLVKPSQTLSLTCTVSGASVTTRYNYWSWIRQPPGKGLEWMGAITYSGSTYYSPSLKSRTSISRDTSKNQFTLQLSSVTPEDTAVYYCATEGSSSTGVSRYSFGSWGQGTQVTVSS
VL: ATMLTQSPGSLSVVPGESASISCKASQSLTHTDGTTALYWLQQKPGQRPQLLIYEVSVRASGVPDRFTGSGSGSDFTLKINGVKAEDAGVYYCAQVAYYPTFGQGTKVELK
notes: as for B1
Molecule B10 showed an EC50 in test [1] of 0.00851 µg/mL. Besides, the off-rate constant (koff) in test [2] worked out at 4.87e-05 s⁻¹.

B11: Fab clone 2E7 (Fab, V domains shown)
VH: ELQVVESGGGLVQPGGSLRLSCAASGFTFGSYDMSWHRQAPRKGPEWVSTISAGGGRTYYADSVKGRFTISRDNAKNTLYLQMNSLKPEDTAVYFCTKIVLDSWGQGTQVTVSS
VL: DVVLTQTPGSLSVVPGESASISCKASQSLIHIDGKTYLYWLLQKPGRRPELLIYQVSNHESGVPDRFTGSGSGTDFTLKISGVKAEDAGVYYCAQATYYPSFGSGTRLEIK
notes: as for B1
In test [1], B11 yielded an EC50 of 0.0133 µg/mL. Besides, in test [2], the koff turned out to be 7.62e-05 s⁻¹.

B12: Fab clone 2F8 (Fab, V domains shown)
VH: EVQLVESGGGLVQPGGSLRLSCAASGFTFGSYDMSWVRQAPGKGPEWVSTISAGGGRTYYADSVKDRFTISRDNAKNTLYLQMNSLKPEDTAVYYCAKVVIDYWGQGTQVTVSS
VL: DVVLTQTPGSLSVVPGESASISCKASQSLVHTDGKTYVYWLLQKPGQRPHLLIYQVSNHESGVPDRFTGSGSGTDFTLKISGVKAEDAGVYYCAQATYYPSFGSGTRLEIK
notes: as for B1
On to B12, for which, in test [1], the EC50 turned out to be 0.0181 µg/mL. This molecule also had an off-rate (koff) in test [2] of 8.53e-05 s⁻¹.

B13: Fab clone 2A2 (Fab, V domains shown)
VH: EVQVQESGGGLVQPGGSLRLSCAASGFTFSSYAMSWVRQAPGKGLEWVSDINSGGGSTVYTDSVKGRFTISRDNAKNTLYLQMNSLKPDDTAVYYCATGGSYYSYRLFDYWGQGTQVTVSS
VL: DIQMTQSPSSVIVSAGEKVTINCKSSQSVLDSSNQKNYLAWYQQRLGQSPRLLIYWASTRESGVPDRFSGSGSTTDFTLTISSFQPEDAAVYYCQQGYSVPVTFGQGTKVELKR
notes: as for B1
Regarding B13, it took 0.00805 µg/mL to reach a half-maximal effect in test [1] (EC50). This molecule yielded a koff in test [2] of 4.41e-05 s⁻¹.

B14: Fab clone 2G6 (Fab, V domains shown)
VH: EVQLVESGGGLVQPGGSLRLSCAASGFTFSSYSMSWVRQAPGKGPEWVSGINTSGGTTSYAASVKGRFTVSRDNAKNTLSLQMNSLEPEDTAVYYCVKHIRWSGSNYYYYGMDYWGKGTLVTVSS
VL: QAVLTQPPSVSGSPGQRFTISCTGSNRNIGNNYVNWYQQLPGTAPKLLIYSDNLRTSGVPARFSASKSGTTSSLTISGLQAEDEAVYYCSSWDDSLSGAVFGGGTHLTVL
notes: as for B1
In turn, B14 had an EC50 in test [1] of 0.0133 µg/mL. Also, the dissociation rate constant (koff) in test [2] was found to be 3.72e-05 s⁻¹.

In general, EC50 refers to the concentration giving half of the maximal effect. The term koff denotes the first-order rate constant of dissociation.
